Literature values, collected in article PMC3865722.
pKd: −log10 of the molar value. Where two headings read alike, the source gives them in different places.

What was measured:
SRSF1 (Homo sapiens) [1] = target: SRSF1 (Homo sapiens) (UniProt Q07955)
SRSF1 (Homo sapiens) [2] = target: SRSF1 (Homo sapiens) (UniProt Q07955); remark: listed apart in the source

SRSF1 (Homo sapiens), sequence (Q07955 2-248): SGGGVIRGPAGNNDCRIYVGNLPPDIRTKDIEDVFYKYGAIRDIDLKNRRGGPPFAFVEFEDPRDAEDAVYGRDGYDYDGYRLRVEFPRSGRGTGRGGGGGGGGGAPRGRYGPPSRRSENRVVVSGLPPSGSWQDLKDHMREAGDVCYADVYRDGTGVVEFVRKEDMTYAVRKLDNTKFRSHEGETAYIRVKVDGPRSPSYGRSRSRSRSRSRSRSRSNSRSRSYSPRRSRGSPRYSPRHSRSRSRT
CLK1, sequence (P49759 whole entry): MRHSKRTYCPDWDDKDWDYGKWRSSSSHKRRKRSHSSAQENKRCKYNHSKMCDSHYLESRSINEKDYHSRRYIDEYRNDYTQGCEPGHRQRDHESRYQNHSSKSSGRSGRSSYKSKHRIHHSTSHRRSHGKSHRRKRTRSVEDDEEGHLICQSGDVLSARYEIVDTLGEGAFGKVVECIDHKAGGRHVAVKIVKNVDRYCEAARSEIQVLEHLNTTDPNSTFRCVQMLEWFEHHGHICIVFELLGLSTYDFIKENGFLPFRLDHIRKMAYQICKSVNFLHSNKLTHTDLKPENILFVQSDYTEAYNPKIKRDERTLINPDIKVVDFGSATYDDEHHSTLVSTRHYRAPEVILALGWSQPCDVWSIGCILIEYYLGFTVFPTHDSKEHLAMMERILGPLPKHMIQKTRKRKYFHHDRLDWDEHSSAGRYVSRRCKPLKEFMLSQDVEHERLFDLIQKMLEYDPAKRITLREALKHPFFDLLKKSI

Substance | pKd (SRSF1 (Homo sapiens) [1]) | pKd (SRSF1 (Homo sapiens) [2])
CLK1 (from UniProt P49759) | > 7.00 | –
SRPK1 (from UniProt Q96SB4) | – | > 7.00
